Patent US20040142455A1

How the values were obtained:
[1] = target: Crotalus durissus terrificus (C.d.t.) venom; assay: ELISA on C.d.t. venom; dilution 1:62,500
[2] = target: Crotalus durissus terrificus (C.d.t.) venom; assay: ELISA on C.d.t. venom; dilution 1:312,500

preimmune IgY (antibody)
ELISA absorbance [1]: 0.001 absorbance | ELISA absorbance [2]: 0.01 absorbance
